Values belong to the binder of their own block, whether it stands above or below them.
Biological target: Q338H MBP–MUTYH (human)
Assay: pull-down

percent reduction of HUS1 associated, against wild-type MUTYH: 80%
percent reduction of RAD9 associated, against wild-type MUTYH: > 50%
B1: RAD9:RAD1:HUS1 (9–1–1) complex, endogenous in HeLa nuclear extract (complex)
chain 1: MKCLVTGGNVKVLGKAVHSLSRIGDELYLEPLEDGLSLRTVNSSRSAYACFLFAPLFFQQYQAATPGQDLLRCKILMKSFLSVFRSLAMLEKTVEKCCISLNGRSSRLVVQLHCKFGVRKTHNLSFQDCESLQAVFDPASCPHMLRAPARVLGEAVLPFSPALAEVTLGIGRGRRVILRSYHEEEADSTAKAMVTEMCLGEEDFQQLQAQEGVAITFCLKEFRGLLSFAESANLNLSIHFDAPGRPAIFTIKDSLLDGHFVLATLSDTDSHSQDLGSPERHQPVPQLQAHSTPHPDDFANDDIDSYMIAMETTIGNEGSRVLPSISLSPGPQPPKSPGPHSEEEDEAEPSTVPGTPPPKKFRSLFFGSILAPVRSPQGPSPVLAEDSEGEG
chain 2: MPLLTQQIQDEDDQYSLVASLDNVRNLSTILKAIHFREHATCFATKNGIKVTVENAKCVQANAFIQAGIFQEFKVQEESVTFRINLTVLLDCLSIFGSSPMPGTLTALRMCYQGYGYPLMLFLEEGGVVTVCKINTQEPEETLDFDFCSTNVINKIILQSEGLREAFSELDMTSEVLQITMSPDKPYFRLSTFGNAGSSHLDYPKDSDLMEAFHCNQTQVNRYKISLLKPSTKALVLSCKVSIRTDNRGFLSLQYMIRNEDGQICFVEYYCCPDEEVPESES
chain 3: MKFRAKIVDGACLNHFTRISNMIAKLAKTCTLRISPDKLNFILCDKLANGGVSMWCELEQENFFNEFQMEGVSAENNEIYLELTSENLSRALKTAQNARALKIKLTNKHFPCLTVSVELLSMSSSSRIVTHDIPIKVIPRKLWKDLQEPVVPDPDVSIYLPVLKTMKSVVEKMKNISNHLVIEANLDGELNLKIETELVCVTTHFKDLGNPPLASESTHEDRNVEHMAEVHIDIRKLLQFLAGQQVNPTKALCNIVNNKMVHFDLLHEDVSLQYFIPALS

percent reduction of RAD9 bound, against wild-type MUTYH: 50%
B2: purified recombinant RAD9:RAD1:HUS1 (9–1–1) complex (complex)
chain 1: B1 chain 1
chain 2: B1 chain 2
chain 3: B1 chain 3

— PMC3627602
